Target: SARS-CoV-1 S-2P (SARS-CoV-1)

With CV3-25 (antibody) the IC50 of neutralisation of SARS-CoV-1 pseudovirus was 2.1 µg/mL.
